Biological target: teichuronic acid synthetase (TUAS) subunit B, 52.5 kDa (Micrococcus luteus (endogenous in ATCC 4698))
Assay: native gel or EMSA; endogenous TUAS co-purified from detergent-solubilised membranes; the active ~440 kDa band on a 3-12% native gradient polyacrylamide gel is separated by 9.5% SDS-PAGE into the 54 kDa and 52.5 kDa subunits; the complex carries lipids and pigments

teichuronic acid synthetase (TUAS) subunit A, 54 kDa (natural protein)
stoichiometry N: 8
